Source: the nanobody polyreactivity screen of Harvey et al. (2022)

Experiment: yeast display, Sf9 membrane polyspecificity reagent, FACS + sequencing; frameworks hold sequencing errors
How it was run: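 Nanobodies from a synthetic yeast display library (Saccharomyces cerevisiae BJ5465), induced 36–48 hours with galactose, were stained 1 hour at 4 °C with 10% biotinylated, detergent-solubilized Sf9 membrane reagent, enriched on streptavidin microbeads, then FACS-sorted. Anti-HA (expression) and streptavidin (reagent binding) fluorescence set low and high (top ~1%) gates. Polyreactivity labels come from the gate of origin. Genes were colony-PCR amplified, MiSeq 2 × 250 sequenced and filtered by CDR length.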

QVQLVESGGGLVQAGGSLRLSCAASGFTFEKNAMGWYRQAPGKERELVAAISRGGSTYADSVKGRFTISRDNAKNTVYLQMNSLKPEDTAVYYCAADTVYIFSSAINGEFGYWGQGTQVTVSS
polyreactivity (PSR sort gate): low polyreactivity

QVQLVESGGGFVQAGGSLPLSCAASGRTFGPYAMRWYRQAPGKERELVAAISSSDGSTYYADSVKGRFTISRDNAKNTVYLQMNSLKPEDTAVYYCNARYYLWSTTRWYGYDYWGQGTQVTVSS
polyreactivity (PSR sort gate): high polyreactivity

QVQLVESGGGIVQAGGSLRLSCAASGRTFAGYAMGWYRQAPGKERELVAGISVDDSTTYYADSVKGRFTISRDNANNTVYLQMISLKPEDTAVYYCNADYIDTFRGFDYWGQGTLVTVSS
polyreactivity (PSR sort gate): low polyreactivity

QDQLLESGGGLVQAGGSLRLSCAASGRTFRYYTMGWYRQAPGKEREFVAAISSTGGTYYADSVKGRFTISRDNAKNTVYLQMNSLKPEDTAVYYCAATFIQFVVNVELYDYDYWGQGTQVTVSS
polyreactivity (PSR sort gate): low polyreactivity

QVQLVESGGGLVQAGGSLRLSCAASGFIFGRYTMGWYRQAPWKERELVAAISGSGGRTYYADSVKGRFTISRDNAKNTVYLQMNSLKPEDTSVYYCATYGYFYYDYWGQGTQVTVSS
polyreactivity (PSR sort gate): high polyreactivity

QVQLVESGGGLVQAGGSLRLSCAASGITLPVYGMGWYRQAPGKERELVAVIDIVGITNYADSVKGRFTISRDNAKNTVYLQMNSLKPEDTAVYYCAKRYVDLADGGEYYYWGQGTQVTVSS
polyreactivity (PSR sort gate): low polyreactivity

QVQLVESVGGLVQAGGSLRLSCAASGFTIYPYAMGWYRQAPGKERELVAAISSSGGNTYYADSVKGRFTISRDNAKNTVYLQMNSLKPEDTAVYYCNARVYRWAIAPDDDSWGQGTQVTVSS
polyreactivity (PSR sort gate): high polyreactivity

QVQLVESGGGLVQAGGSLRLSCAASGFTFGTYTMGWYRQAPGKERELVAAISGSGGSTYYADSVKGRFTISRDNAKNTDYLQMNSLKPEDTAVYYCAAVGRSKRDGYWGQGTQVTVST
polyreactivity (PSR sort gate): high polyreactivity

QVQLVESGGGLVQAGGSLRLSCAASAFTFYTNAMGWYRQAPGKERELVAAISGGGSTKYADSVKGRFTISRDNAKNTVYLQMNSLKPEDTAVYYCAAQIKWGYRRNRHDYWGQGTQVTVSS
polyreactivity (PSR sort gate): high polyreactivity

QVQLVESGGGLVQAGGSLRLICAASGRIFDSYTMGWYRQAPGKERELVAAISRGGGSTYYADSVKGRFTISRDNAKNTVYLQMNSLKPEDTAVFYCAASSYLNSRFKFDYWGQGTQVTVSS
polyreactivity (PSR sort gate): low polyreactivity

QVQLVESGGGLVQAGGRLRLSCAASGRNFEPYAMGWYRQAPGKERELVAAISRSGGRTYYADSVKGRFTISRDNAKNTVYLQMNSLKPEDTAVYYCAAVGVYWYVYPHEYDYWGQGTQVTVSS
polyreactivity (PSR sort gate): high polyreactivity

QVQLVESGGGLVQAGGSLRLSCAASGIIFVWYTMGWYRQAPGKERELVAAIDSIGDGTYYADSVKGRFTISRDNAKNTVYLQMNSLKPEDTAVYYCAVDDYYEMDYWGQGTQVTVSS
polyreactivity (PSR sort gate): low polyreactivity

QVQLVESGGGLVQAGGSLRLSCAASGNIFFTNAMGWYRQAPGKERELVATISFRGTSTYYADSVKGRFTISRDNAKKTVYLQMNSLKPEDTAVYYCAARYSVFHRARVNLLGWGLYYWGQGTQVTVSS
polyreactivity (PSR sort gate): low polyreactivity

QVQLVESGGGLVQAGGSLRLSCAASGFTFYLNVMGWYRQAPGKERELVARISRSGGTTYYADSVKGRFTISRDNAKNTVYLQMNSLKPEDTAVYYCAARRYGVPPTYDYWGQGTQVTVSS
polyreactivity (PSR sort gate): high polyreactivity

QVQLVESGGGLVQAGASLRLSCAASGIIYAYNAMGWYRPAPGKERELVATITDSGGSTSYADSVKGRFTISRDNAKNTVYLQMNSLKPEDTAVYYCAVLPVYWYWRNYVYLSGYDYWGQGTQVTVSS
polyreactivity (PSR sort gate): low polyreactivity

QVQLVESGGGLVQAGGSLRLSCAASGSTFLYYAMGWYRPAPGKESELVAGISASGGSTYYADSVKGRFTISRDNAKITVYLQMNSLKPEDTAVYYCARYAGFPYTQCDYWGQGTQVTVSS
polyreactivity (PSR sort gate): high polyreactivity

QVQLLESGGGLVQSGGILRLSCAASGRNFGRYAMGLYRQAPGKERELLATITWRGGITYYADSVKGRFTISRDNAMNTVSLQMNSLKPEDSAVYYCAAGYGRIPYVYWGKGTQVTVSS
polyreactivity (PSR sort gate): high polyreactivity

QVQLVESGGGLVQAGGSLRLSCAASGSTFYTYAMGWYRQAPGKERELVAAISNRGGSTRYADSVKGRFTISRDTAKNTVYLQMNSLKPEDTAVYYCAARVTQTGYYWGQGTQVTVSS
polyreactivity (PSR sort gate): high polyreactivity

QVQLVESGGGLVQAGGSLRLSCASSGSIFYTYAMGWYRQAPGKERELVAAISRSGGSTYYADSVKGRFTISRDNAKNTVYLQMNSLKPEDTAVYYCAAVSYRGRGYWGQGTQVTVSS
polyreactivity (PSR sort gate): high polyreactivity

QVQLVESGGGLVQAGGSLRLSCAASGIIIVYNVMGWYRQAPGKERELVAAITNGDSTNYADSVKGRFTISRDNAKNTVYLQMNSLKPEDTAVYYCNVEGGYPLKYDYWGQGTQVSVSS
polyreactivity (PSR sort gate): low polyreactivity

QVQLVESGGGLVQAGGSLRLSCAASGSIFSIYAMGWYRQAPRKERELVAAISSSGRTYYADSVKGRFTISRDNAKNTVYLQMNSQKPVDTAVYYCNRVREGKHYYYWGQGTQVTVSS
polyreactivity (PSR sort gate): high polyreactivity

QVQLVESGGGLVQAGGSLRLSCAASGRIFKPNAMGWYRQAPVKEREFVARITRNTGSTYYADSVKGRFTISRDNAKNTVYLQMNSLKPEDTAVYYCAAGAPSYYYYWGQGTQVTVSS
polyreactivity (PSR sort gate): high polyreactivity

QVQLVESGGGLVQAGGSLRLSCAASGRIFKINAMGWSRQAPGKERDLVATISYSAGRTYYADSEKGRFTISRDSAKNTVYLQMNSLKPEDTAVYYCAARISSYWPYSLLDYWGQGTQVTVSS
polyreactivity (PSR sort gate): high polyreactivity

QVQLVESGGGLVQAGGSLRLSCAASGSIFPYNVMGWYRQAPGKERELVAAISTRGGRTYYADSVKGRFTISRDNAKNTVYLQMNSLKPEDTAVYYCNTVVLRYLYNYWGQGTQVTVSS
polyreactivity (PSR sort gate): high polyreactivity

QVQLVESGGGLVQAGGSLRLSCAASGFNFRGYAMGWYRQAPGKERELVAAINSGDSTNYADSVKGRFTISRDNAKNTVYLQMNSLKPEDTAVYYCAASIYAALNGGPGYDYWGQGTQVTVSS
polyreactivity (PSR sort gate): low polyreactivity

QVQLVESGGGLVQAGGSLRLSCAASGIIFSYYAMGWYIQAPGKERELVAAISSSGVSTNYADSVKGRFTISRDNAKNTVYLQMNSLKPEDTAVYYCNARGYYWYRPYVNSNGGYWGQGTQVTVSS
polyreactivity (PSR sort gate): high polyreactivity

QVQLVESGGGLVQAGGSHRLTCAASGSTFFAYAIGCYRPAPGTERELVAAISSRGGRTYYADSVKGRFTISRDNAQNTVYLQMNSLKPEDTAVYYCAVGPGLAQSYDYWGQGTQVTVSS
polyreactivity (PSR sort gate): high polyreactivity

QVQLVESGGGLVQAGGSHRLSCAASGRLFRYYDMGWYRQAPGKERELVARISSTGRTYADSVMGRFTISRDNAKNTVYLQMNSLKPVDTAVYYCAALFHTRGHSKYDYWGQGTQVTVSS
polyreactivity (PSR sort gate): high polyreactivity

QVQLVESGGGLVQAGGSLRLSCAASGRIFYTYAMGWYRQAPGKERELVAAINYSSASTYYADSVKGRFTISRDNAKNTVYLQMNSLKPEDTAVYYCNVAYVYGSFRRRPMGYWGQGTQVTVSS
polyreactivity (PSR sort gate): high polyreactivity

QDQLVESGGGLDQARGSLRLICAASGSTFKYYAMPSYRQAPGKERELVAAISWSGGNTYYADSVKGRFTISRENAKNTDYLQMNCLKPEDTAVYYCAADTKVGNGIKFDYWGQGTHVTVSS
polyreactivity (PSR sort gate): high polyreactivity

QVQLVESGGGLVQAGVSLRLSCAASGSTFIRNAMGWYRKAPGKERELVAAISSGGASTHYADSVKGRFTISRDNAKNTVYLQMKSLKPEDTAVYYCSATHRWYYWPGIPAYDYWGQGTQVTVSS
polyreactivity (PSR sort gate): low polyreactivity

QVQLVESGGGLVQAGGSLRLSCAASGRIFAAYAMGWYRQAPGKERELVAAITRRGSTYYADSVKGRFTISRDNAKNTVYLQMNSLKPEDTAVYYCNKVPLFQYSTAWYDYWGQGTQVTVSS
polyreactivity (PSR sort gate): high polyreactivity

QVQLVETGGGLVQAGGSLRLSCAASGITFRGYAMGWYRQAPGKERELVAAISGSGGTTYYADSVKGRFTISRDNAKNTVYLQMNSLKPEDTAVYYCNAKAVRGRYVWYDYWGQGTQVTVSS
polyreactivity (PSR sort gate): high polyreactivity

QVQLVESGGGLVQAGGSLRLSCAASGSTFKRYAMGLYRQAPGKERELVASIPSAASTYYADSVKGRFSISRDNAKNTVNLQMNSLKPEDTAVYYCAASAYSALYYWYDYWGQGTQVTVSS
polyreactivity (PSR sort gate): high polyreactivity

QVQLVESGGGLVQAGGSLRLSCAASGSILGYYAMGWYRQEPGKERELVAAISGRGGSTYYADSVKGRFTISRDNAKNSVYLHMNSLKPEDTAVYYCAVVWGSYYWGQGGGEYWGQGTQVTVSS
polyreactivity (PSR sort gate): high polyreactivity

QVQLVESGGGLVQAGGSLRLSSAASGRIFAVNAMGRYRQAPGKERELVASIRWSGGSTNYADSVKGRFTISRDNAKNTVYLQMNSLKPEDTAVYFCAAVIYLWGQGTQVTVSS
polyreactivity (PSR sort gate): high polyreactivity

QVQLVESGGGLVQAGGSLRLSCASSGLIFRVYNMGWYRQAPGKERELVAAITGRGGRTYYADSVKGRFTISRDNAKNTVYLQMNSLKPEDTSVYYCATGGRFQQAAYTGFNYWGQGTQVTVSS
polyreactivity (PSR sort gate): high polyreactivity

QDQLVDSRGGLVQAGGSLRLSCAASGLIFRSYAMGWSRQAPGKERELVAAITDLFWSTYYADSVKGRFTISRDYAKNTVYLQMNSLKPEDNAVFYCARDDWVYTNVEMDYWGQGTQVTVSS
polyreactivity (PSR sort gate): high polyreactivity

QVQLVESGGGLVQAGGSLRLSCAASGSIFYTNAMGWYRQAPGKERELVAAIRWSGGRTYYADSVKGRFTISRDNAKNTVFLQMNSLKPEDTAVYYCNVVVRYQSAYDYWGQGTQVTVSS
polyreactivity (PSR sort gate): high polyreactivity

QVQLVESGGGLVQAGGSLRLSCAASGSIFGYYAMGWYRQAPGKERELVAAITYSGGNTNYADSVKGRFTISRDNAKNTVYLQMNSLKPEDTAVYYCAARKNYQAVYARRTRYYYWGQGTQVTVSS
polyreactivity (PSR sort gate): high polyreactivity

QVQLVESGGGLVQAGGSLRISCAASGSTLLRNAMGWYRQAPGKERELVAVITYSGGSTYYADSVKGRFTISRDNAKNTVYLQMNSLKPEDTAVYYCAADIWYYVRYPTDAYSKFDYCGQGTQVTVSS
polyreactivity (PSR sort gate): low polyreactivity

QVQLVESGGGLVQAGGSLRLSCAASGFIFRRNAMGWYRQAPGKERELVAAIRQRGDSTYYADSVKGRFTISRDNAKNTVYLQMNSLKPEDTAVYYCATDHAYFHPEYDYWGQGTQVTVSS
polyreactivity (PSR sort gate): low polyreactivity

QVQLVESWGGLVQAGGSLRLSCAASGRTFDGNAMGWYRQAPGKEGEFVATISTDGGSTHYADSVKGRFTISRDNAKNTVYLQMNSLKPEDTAVYYCAADTPWYDDNYDYWGQGTQVTVSS
polyreactivity (PSR sort gate): low polyreactivity
